To fix the notation:
B1: glmS ribozyme (parent)
chain: AUAAAAGCGCCAGAACUACAGAAAUGUAGUUGACGAGGAGGAGGUUUAUCGAAUUUUCGGCGGAUGCCUCCAAA

± gives the standard error. Variants at the floor of the assay were thinned out. Where only a bound is given, the exact number is not on record here.

Conditions in all cases: with glucosamine-6-phosphate
The variants in series [1] derive from B1. The series can be described thus: self-cleavage kobs at 640 uM GlcN6P; higher = faster cleavage; RNA array. The procedure, abridged:
(§1)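 In situ transcription by E. coli RNA polymerase produced barcoded ribozyme variants on sequenced MiSeq chips, and a hybridised Cy3 probe tracked them at 37 °C. Glucosamine-6-phosphate was flowed in at 40 μM to 10 mM in HEPES/KCl/Mg(OAc)2 buffer. kcat and KM were taken from weighted Michaelis–Menten fits of kobs values from exponential decay fits.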

Variants of B1 are the subject of series [2]. The series can be described thus: self-cleavage kobs at 2500 uM GlcN6P; higher = faster cleavage; RNA array. The procedure, abridged:
as §1

Series [3] covers variants of B1. The series can be described thus: self-cleavage kobs at 10000 uM GlcN6P; higher = faster cleavage; RNA array. The procedure, abridged:
as §1

Consider AUAAAAGCGCCUGAACUACAGAAAUGUAGUUAACGAGGAGGAGGUUUAUCGUACUUUCGGGGUAUGCCUCAAAA [A12U G32A A52U U54C C61G G63U C71A], for which the “self-cleavage kobs at 640 uM GlcN6P” value in the series with glucosamine-6-phosphate [1] is less than 1e-05 s⁻¹. For the same variant, the “self-cleavage kobs at 2500 uM GlcN6P” value with glucosamine-6-phosphate [2] is less than 1e-05 s⁻¹.
With AUAAAAGCGCCAGGACUACAGAAAUGUAGUAGACGAGGAGAAGGUUUAUCGAAUUUUCGGCGGAUGCCUCUAAA [A14G U31A G41A C71U], the “self-cleavage kobs at 640 uM GlcN6P” value in the series with glucosamine-6-phosphate [1] worked out at 0.000186 ± 7.9e-05 s⁻¹. Further, the “self-cleavage kobs at 2500 uM GlcN6P” value with glucosamine-6-phosphate [2] turned out to be 0.000396 ± 0.00011 s⁻¹.
With AUAAAAGCGCCAGAACUACAGAAAUGUAGUUGACGAGGCGGAGGUUUAUCGAAUUUUCCGCGGAUGCUUCCAAA [A39C G59C C68U], the “self-cleavage kobs at 640 uM GlcN6P” value in the series with glucosamine-6-phosphate [1] was less than 1e-05 s⁻¹.
As to AUAAAAGCGCCACAACUACAGAAAUGUAGUUGACGAGGAGGAUGUUUAUCGAAUUUUGGGCGGAUGCCUCCAAA [G13C G43U C58G], the “self-cleavage kobs at 640 uM GlcN6P” value with glucosamine-6-phosphate [1] was less than 1e-05 s⁻¹. The “self-cleavage kobs at 2500 uM GlcN6P” value in the series with glucosamine-6-phosphate [2] is less than 1e-05 s⁻¹. Also, in the series with glucosamine-6-phosphate [3], the “self-cleavage kobs at 10000 uM GlcN6P” value is less than 1e-05 s⁻¹.
On to AUAAAAGCGCCAGAACUACAGAAAUGUAGUUGACGAGGAGGAGAUUUAUUGAAUUUUCGGCGGAUGUCUCCAAA [G44A C50U C67U], for which the “self-cleavage kobs at 640 uM GlcN6P” value with glucosamine-6-phosphate [1] is less than 1e-05 s⁻¹.
As for AUAAAAGAGCCAGAACUACAGAAAUGUAGUUGACGAGGAGGAGGUUUAUGGAAUUUUGGGCAGAUGCCUCCAAA [C8A C50G C58G G62A], the “self-cleavage kobs at 640 uM GlcN6P” value with glucosamine-6-phosphate [1] was 0.000111 ± 3.2e-05 s⁻¹. In the series with glucosamine-6-phosphate [2], the “self-cleavage kobs at 2500 uM GlcN6P” value was 0.000345 ± 8.6e-05 s⁻¹.
On to AUAAAAGGGCCAGAGCUACAGAAAUGUAGUUGACGAGGAUGAGGUUUAUCGAAUUUUCGGCGGAUGCCUCCAAA [C8G A15G G40U], for which the “self-cleavage kobs at 640 uM GlcN6P” value with glucosamine-6-phosphate [1] is less than 1e-05 s⁻¹.
On to AUAAAAGCGCCAGAACUACAGAAAUGUAGUUGACGAGGAGCAGGUGUAUCGAACUUUCGGCGGAUGCCUGCAAA [G41C U46G U54C C70G], for which the “self-cleavage kobs at 640 uM GlcN6P” value with glucosamine-6-phosphate [1] came to 0.00305 ± 0.00089 s⁻¹. Further, in the series with glucosamine-6-phosphate [2], the “self-cleavage kobs at 2500 uM GlcN6P” value is 0.00908 ± 0.0027 s⁻¹.
Regarding AUAAAAGCGCCAUAACUACAGAAAUGUAGUUGACGAGGUGGAGGUUUUUCAAAUGUUCGGCGGAUGCCUACAAA [G13U A39U A48U G51A U55G C70A], in the series with glucosamine-6-phosphate [1], the “self-cleavage kobs at 640 uM GlcN6P” value was less than 1e-05 s⁻¹.
Still for that read-out and setting: the result for AUAAAAGCGCCAGAACUACAGAAAUGUAGUUGACGAGGAGGAGGUUUAAUGAAUUUUCGGCGGAUGAGUCAAAA [U49A C50U C67A C68G C71A] reads 5.04e-05 ± 1.8e-05 s⁻¹.
Take AUAAAAGCCCCAGAACUACAGAAAUGUAGUUGACGAGGAGGAGGUUUAUCGAAUUUUCGGCGGAAGCGUCCAAA [G9C U65A C68G]: the “self-cleavage kobs at 640 uM GlcN6P” value in the series with glucosamine-6-phosphate [1] was 0.000522 ± 0.00017 s⁻¹. In the series with glucosamine-6-phosphate [3], the “self-cleavage kobs at 10000 uM GlcN6P” value was found to be 6.3e-05 ± 2.2e-05 s⁻¹.
In the case of AUAAAAGCGCCAGCACUACAGAAAUGUAGUUGACGAGGAAGAGGUUUAUCGAAUUUUCGUCGGAUGCCUCCAAA [A14C G40A G60U], in the series with glucosamine-6-phosphate [1], the “self-cleavage kobs at 640 uM GlcN6P” value was less than 1e-05 s⁻¹. In addition, in the series with glucosamine-6-phosphate [2], the “self-cleavage kobs at 2500 uM GlcN6P” value was less than 1e-05 s⁻¹.
For AUAAAAGCGCCAGAACCACAGAAAUGUAGUUGACGAGGAGGAGUUUCAUCGAAUUUUCGGCGGAUGCCUCCAAA [U17C G44U U47C], the “self-cleavage kobs at 640 uM GlcN6P” value with glucosamine-6-phosphate [1] was less than 1e-05 s⁻¹.
As for AUAAAAGCGCCAGAACUACAGAAAUGUAGAUGACGAGGAGGAGGUUUAUCGAAUGUUCGGUGGAUGCCUCCAAA [U30A U55G C61U], the “self-cleavage kobs at 640 uM GlcN6P” value with glucosamine-6-phosphate [1] is less than 1e-05 s⁻¹. Moreover, the “self-cleavage kobs at 10000 uM GlcN6P” value with glucosamine-6-phosphate [3] was less than 1e-05 s⁻¹.
AUAAAAGCGCCAGAACUACAGAAAUGUAAUUAACGAGGAGGAGGUUUAUCGAAUUUCCGGCGGAUGCCCCCAAA [G29A G32A U57C U69C]: the “self-cleavage kobs at 640 uM GlcN6P” value with glucosamine-6-phosphate [1] was determined as 9.71e-05 ± 3.8e-05 s⁻¹.
Regarding AUAAAAGCGCAAGAAAUACAGAAAUGUAGUUGACGAGGAGGAGGUUUAUGGAAUUUUCGGCGGAUGCCUCCAAA [C11A C16A C50G], in the series with glucosamine-6-phosphate [1], the “self-cleavage kobs at 640 uM GlcN6P” value stood at 0.000146 ± 4.5e-05 s⁻¹. Moreover, in the series with glucosamine-6-phosphate [2], the “self-cleavage kobs at 2500 uM GlcN6P” value came out at 8e-05 ± 2.7e-05 s⁻¹.
With AUAAAAGCGCCAGAUCUACAGAAAUGUAGUUGACUAGGAGGAGGUUUAUCGAAUUUUCAGCGGAUGCCUCCAAA [A15U G35U G59A], in the series with glucosamine-6-phosphate [1], the “self-cleavage kobs at 640 uM GlcN6P” value is less than 1e-05 s⁻¹.
Same read-out and setting: in the case of AUAAAAGCGCAAGAACUACAGAAAUGUAGUUGGCGAGGAGGAGGUUUAUCGAAUUUUCGGCGAAUUCCUCCAAA [C11A A33G G63A G66U] it was less than 1e-05 s⁻¹; in that of AUAAAAGCGCCAGAAUUACAGAAAUGUAGUUGACGAGGGGGAGGUUUAUCGAAUCUUCGGCGGAUGCCUCCAAA [C16U A39G U55C], 0.0143 ± 0.0027 s⁻¹.
On to AUAAAAGCGCCAGCAAUACAGAAAUGUAGUUGACGAGGAGGAUGUUUAUCGAAUUUUCGGCGGAUGCUUCCAAA [A14C C16A G43U C68U], for which, in the series with glucosamine-6-phosphate [1], the “self-cleavage kobs at 640 uM GlcN6P” value is less than 1e-05 s⁻¹. In addition, the “self-cleavage kobs at 2500 uM GlcN6P” value with glucosamine-6-phosphate [2] is less than 1e-05 s⁻¹.
Consider AUAAAAGCGCCAGAACUACAGAAAUGUAGUUGACGAGGAGGAGGUAUAUUGAAUCUUCGGCGGAUGCCUCCAAA [U46A C50U U55C], for which the “self-cleavage kobs at 640 uM GlcN6P” value in the series with glucosamine-6-phosphate [1] is less than 1e-05 s⁻¹.
Take AUAAAAGCGCCAGAACUACAGAAAUGUAGCUGACGAGGAGGAGGUGUAUCGAAUUUUCGGCGGAUGCCUUCAAA [U30C U46G C70U]: the “self-cleavage kobs at 640 uM GlcN6P” value with glucosamine-6-phosphate [1] amounted to 4.5e-05 ± 2e-05 s⁻¹.
On to AUAAAAGCCCCGGAACUACAGAAAUGUAAUUGACGAGGAGGAGGUUUAUCGAAUUUUCGGCGGAUGCCUCCAAA [G9C A12G G29A], for which the “self-cleavage kobs at 640 uM GlcN6P” value in the series with glucosamine-6-phosphate [1] is less than 1e-05 s⁻¹.
Same read-out and setting: in the case of AUAAAAGCGCCAGAACUACAGAAAUGUAGUUGACGAGGAGGAGGUUUAUCGAAAUUUCGGCAGAUCCCUCCAAA [U54A G62A G66C] it was less than 1e-05 s⁻¹.
Turning to AUAAAAGCGCCAGAACUACAGAAAUGUAGUUGACGUGGAGGAGGUUUUUCGAAUUUUCGUCGGAUGCAUCCAAA [A36U A48U G60U C68A], the “self-cleavage kobs at 640 uM GlcN6P” value with glucosamine-6-phosphate [1] was less than 1e-05 s⁻¹. Moreover, the “self-cleavage kobs at 2500 uM GlcN6P” value in the series with glucosamine-6-phosphate [2] was less than 1e-05 s⁻¹.

(Values after the supplement of paper PMC7125110.)
